The values that follow come from article doi:10.1101/2024.03.08.584184.

For the data set, the target named is cGAS (Homo sapiens, UniProt Q8N884 1-522). The experiment in a line: EMSA.
Sequence of cGAS (Q8N884 whole entry): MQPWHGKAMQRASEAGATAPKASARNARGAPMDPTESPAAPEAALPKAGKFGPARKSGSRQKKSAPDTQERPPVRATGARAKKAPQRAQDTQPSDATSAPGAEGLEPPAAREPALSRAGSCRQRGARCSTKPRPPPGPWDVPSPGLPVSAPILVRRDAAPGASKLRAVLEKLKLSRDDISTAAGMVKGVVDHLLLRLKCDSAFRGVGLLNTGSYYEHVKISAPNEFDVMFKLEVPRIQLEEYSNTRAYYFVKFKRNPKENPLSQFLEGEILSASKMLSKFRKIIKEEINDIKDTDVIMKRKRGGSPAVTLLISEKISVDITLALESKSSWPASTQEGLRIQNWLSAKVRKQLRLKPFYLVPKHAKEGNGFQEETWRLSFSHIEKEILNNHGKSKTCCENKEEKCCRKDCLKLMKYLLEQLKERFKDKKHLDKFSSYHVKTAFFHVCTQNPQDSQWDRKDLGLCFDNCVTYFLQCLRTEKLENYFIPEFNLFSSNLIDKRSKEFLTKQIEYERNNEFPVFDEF

B1: 70bp Oligo 2 (dsDNA)
DNA 1: GGCAAGCAGGCCTTCTCATGCGTATATCAACGTGTCCGTTTGAGATATCAGTGTTCTCTTTCCCGGTTAA
DNA 2: TTAACCGGGAAAGAGAACACTGATATCTCAAACGGACACGTTGATATACGCATGAGAAGGCCTGCTTGCC
In the case of B1, the binding result is recorded as “binds”.
